From US20210238260
Numbering of substitutions follows the chain as printed. Names may count otherwise.

B1: FIXa-Y155F/R318Y/T343R/E410N (protein)
chain 1: YNSGKLEEFVQGNLERECMEEKCSFEEAREVFENTERTTEFWKQYVDGDQCESNPCLNGGSCKDDINSYECWCPFGFEGKNCELDVTCNIKNGRCEQFCKNSADNKVVCSCTEGYRLAENQKSCEPAVPFPCGRVSVSQTSKLTR
chain 2: VVGGEDAKPGQFPWQVVLNGKVDAFCGGSIVNEKWIVTAAHCVETGVKITVVAGEHNIEETEHTEQKRNVIRIIPHHNYNAAINKYNHDIALLELDEPLVLNSYVTPICIADKEYTNIFLKFGSGYVSGWGRVFHKGYSALVLQYLRVPLVDRATCLRSTKFRIYNNMFCAGFHEGGRDSCQGDSGGPHVTEVEGTSFLTGIISWGEECAMKGKYGIYTKVSRYVNWIKNKTKLT
B2: FIXa-D104N/K106S/I251S/R318Y/R338E/R403E/E410N (protein)
chain 1: B1 chain 1 with D104N, K106S
chain 2: B1 chain 2 with I71S, R158E, R163T, R223E
B3: FIXa-Y155F/K247N/N249S/R318Y/R338E/R403E (protein)
chain 1: B1 chain 1
chain 2: B1 chain 2 with K67N, N69S, R158E, R163T, R223E, N230E
B4: FIXa-K247N/N249S/R318Y/R338E/R403E (protein)
chain 1: B1 chain 1
chain 2: B1 chain 2 with K67N, N69S, R158E, R163T, R223E, N230E
B5: FIXa-R318Y/R338E/T343R/E410N (protein)
chain 1: B1 chain 1
chain 2: B1 chain 2 with R158E
B6: FIXa-Y155F/R338E/T343R/R403E/E410N (protein)
chain 1: B1 chain 1
chain 2: B1 chain 2 with Y138R, R158E, R223E
B7: FIXa-Y155F/K247N/N249S/R318Y/R338E/T343R/R403E/E410N (protein)
chain 1: B1 chain 1
chain 2: B1 chain 2 with K67N, N69S, R158E, R223E
B8: FIXa-K247N/N249S/R318Y/R338E/T343R/R403E/E410N (protein)
chain 1: B1 chain 1
chain 2: B1 chain 2 with K67N, N69S, R158E, R223E
B9: FIXa-K228N/I251S/R318Y/R338E/R403E/E410N (protein)
chain 1: B1 chain 1
chain 2: B1 chain 2 with K48N, I71S, R158E, R163T, R223E
B10: FIXa-Y155F/K228N/I251S/R318Y/R338E/R403E/E410N (protein)
chain 1: B1 chain 1
chain 2: B1 chain 2 with K48N, I71S, R158E, R163T, R223E
B11: FIXa-N260S/R318Y/R338E/T343R/R403E/E410N (protein)
chain 1: B1 chain 1
chain 2: B1 chain 2 with N80S, R158E, R223E
B12: FIXa-Y155F/N260S/R318Y/R338E/T343R/R403E/E410N (protein)
chain 1: B1 chain 1
chain 2: B1 chain 2 with N80S, R158E, R223E
B13: FIXa-K228N/K247N/N249S/R318Y/R338E/T343R/R403E/E410N (protein)
chain 1: B1 chain 1
chain 2: B1 chain 2 with K48N, K67N, N69S, R158E, R223E
B14: FIXa-Y155F/K228N/K247N/N249S/R318Y/R338E/T343R/R403E/E410N (protein)
chain 1: B1 chain 1
chain 2: B1 chain 2 with K48N, K67N, N69S, R158E, R223E
B15: FIXa-R318Y/T343R/E410N (protein)
chain 1: B1 chain 1
chain 2: B1 chain 2
B16: FIXa-K228N/R318Y/R338E/T343R/R403E/E410N (protein)
chain 1: B1 chain 1
chain 2: B1 chain 2 with K48N, R158E, R223E
B17: FIXa-K228N/K247N/N249S/R318Y/R338E/T343R/R403E (protein)
chain 1: B1 chain 1
chain 2: B1 chain 2 with K48N, K67N, N69S, R158E, R223E, N230E
B18: FIXa-K228N/K247N/N249S/R318Y/R338E/T343R/E410N (protein)
chain 1: B1 chain 1
chain 2: B1 chain 2 with K48N, K67N, N69S, R158E
B19: FIXa-K228N/K247N/N249S/R318Y/T343R/R403E/E410N (protein)
chain 1: B1 chain 1
chain 2: B1 chain 2 with K48N, K67N, N69S, R223E
B20: FIXa Y155F/K228N/K247N/N249S (protein)
chain 1: B1 chain 1
chain 2: B1 chain 2 with K48N, K67N, N69S, Y138R, R163T, N230E
B21: FIXa K228N/K247N/N249S/R318Y/R338E/R403E/E410N (protein)
chain 1: B1 chain 1
chain 2: B1 chain 2 with K48N, K67N, N69S, R158E, R163T, R223E
B22: FIXa D104N/K106S/K228N/K247N/N249S/R318Y/R338E/R403E/E410N (protein)
chain 1: B1 chain 1 with D104N, K106S
chain 2: B1 chain 2 with K48N, K67N, N69S, R158E, R163T, R223E
B23: FIXa-R318Y/R338E/R403E/T412A (protein)
chain 1: B1 chain 1
chain 2: B1 chain 2 with R158E, R163T, R223E, N230E, T232A

Experiments:
[1] = target: Factor X (FX), P00742
[2] = target: Factor X, P00742
[3] = target: plasma purified human AT-III (antithrombin III); assay: AT-III/UFH inhibition K0.5, ratio to Catalyst Biosciences WT FIXa
[4] = target: plasma purified human antithrombin III (AT-III), as complex with unfractionated heparin; assay: ratio of K0.5 (lower limit) to Catalyst Biosciences WT FIXa, AT-III/UFH inhibition

Sequence of Factor X, P00742 (P00742 whole entry, looked up): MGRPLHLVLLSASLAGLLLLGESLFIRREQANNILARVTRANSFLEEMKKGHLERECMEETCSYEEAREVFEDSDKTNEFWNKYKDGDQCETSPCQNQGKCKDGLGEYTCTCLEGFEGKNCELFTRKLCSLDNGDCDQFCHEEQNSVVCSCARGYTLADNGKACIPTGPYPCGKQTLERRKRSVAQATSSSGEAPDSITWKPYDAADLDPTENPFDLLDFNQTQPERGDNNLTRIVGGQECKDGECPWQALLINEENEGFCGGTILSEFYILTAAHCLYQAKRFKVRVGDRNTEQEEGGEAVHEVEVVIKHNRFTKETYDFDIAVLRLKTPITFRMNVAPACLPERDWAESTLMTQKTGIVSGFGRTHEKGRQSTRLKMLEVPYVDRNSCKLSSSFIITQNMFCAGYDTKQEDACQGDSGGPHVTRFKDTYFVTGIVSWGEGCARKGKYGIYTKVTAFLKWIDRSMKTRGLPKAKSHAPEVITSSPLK
Sequence of Factor X (FX), P00742 (P00742 whole entry, looked up): as above

Protein | % of WT kcat/KM [2] [%] | kcat/KM [2] [M⁻¹ s⁻¹] | kcat [2] [s⁻¹] | KM [1] [µM] | also measured
B1 | – | – | – | – | % of WT kcat/KM [1]: 326%; kcat (s^-1) of FX activation by FIXa variant in the Xase complex (FVIIIa, PC/PS vesicles, Ca2+), fluorogenic FXa read-out [1]: 5 s⁻¹; kcat/KM for FX activation (Xase: FVIIIa, PC/PS vesicles, Ca2+) [1]: 1.5e+08 M⁻¹ s⁻¹; KM [2]: 0.0403 µM
B2 | – | – | – | – | % of WT kcat/KM [1]: 263%; kcat [1]: 5.5 s⁻¹; kcat/KM [1]: 1.2e+08 M⁻¹ s⁻¹; K0.5-mut/K0.5-wt [3]: > 517; K0.5-mut/K0.5-wt [4]: 517
B3 | 206 | 9.5e+07 | – | – | kcat of FX activation by FIXa (Xase complex with FVIIIa, PC/PS vesicles, Ca2+) [1]: 5.7 s⁻¹
B4 | 496 | 2.3e+08 | – | – | kcat of FX activation by FIXa (Xase complex with FVIIIa, PC/PS vesicles, Ca2+) [1]: 10.5 s⁻¹
B5 | 728 | 3.4e+08 | 4.9 | – | catalytic activity (kcat/KM) for activation of FX [1]: displayed some of the greatest increases in catalytic activity
B6 | 524 | 2.4e+08 | 5.7 | 0.0259 | –
B7 | 864 | 4e+08 | 9.7 | 0.0257 | –
B8 | 824 | 3.8e+08 | 10.6 | 0.0292 | catalytic activity (kcat/KM) for activation of FX [1]: improved activity when combined with other mutations
B9 | 463 | 2.1e+08 | 7.5 | 0.0364 | –
B10 | 296 | 1.4e+08 | 5.3 | 0.0393 | –
B11 | 638 | 2.9e+08 | 8.9 | 0.0321 | –
B12 | 335 | 1.5e+08 | 5.8 | 0.0402 | –
B13 | 880 | 4.1e+08 | 9.9 | 0.0251 | –
B14 | 646 | 3e+08 | 9.4 | 0.0368 | –
B15 | – | – | – | – | kcat (s^-1) of FX activation by FIXa variant in the Xase complex (FVIIIa, PC/PS vesicles, Ca2+), fluorogenic FXa read-out [1]: 3.2 s⁻¹; KM [2]: 0.0523 µM
B16 | – | – | – | – | kcat (s^-1) of FX activation by FIXa variant in the Xase complex (FVIIIa, PC/PS vesicles, Ca2+), fluorogenic FXa read-out [1]: 10.5 s⁻¹; KM [2]: 0.0403 µM
B17 | – | – | – | – | kcat (s^-1) of FX activation by FIXa variant in the Xase complex (FVIIIa, PC/PS vesicles, Ca2+), fluorogenic FXa read-out [1]: 10.9 s⁻¹; KM [2]: 0.0444 µM
B18 | – | – | – | – | kcat (s^-1) of FX activation by FIXa variant in the Xase complex (FVIIIa, PC/PS vesicles, Ca2+), fluorogenic FXa read-out [1]: 4.7 s⁻¹; KM [2]: 0.0381 µM
B19 | – | – | – | – | kcat (s^-1) of FX activation by FIXa variant in the Xase complex (FVIIIa, PC/PS vesicles, Ca2+), fluorogenic FXa read-out [1]: 8.1 s⁻¹; KM [2]: 0.125 µM
B20 | 115 | 5.3e+07 | – | – | KM (FX activation by FIXa in the Xase complex with FVIIIa, PC/PS vesicles and Ca2+) [1]: 0.0792 µM
B21 | 352 | 1.6e+08 | – | – | KM (FX activation by FIXa in the Xase complex with FVIIIa, PC/PS vesicles and Ca2+) [1]: 0.0497 µM
B22 | 239 | 1.1e+08 | – | – | KM (FX activation by FIXa in the Xase complex with FVIIIa, PC/PS vesicles and Ca2+) [1]: 0.0533 µM
B23 | – | – | – | – | K0.5-mut/K0.5-wt [3]: > 517; K0.5-mut/K0.5-wt [4]: 517
